Measured values as given in patent US20220153832A1 (PIONYR IMMUNOTHERAPEUTICS, published 2022).
Where a chain is given by its changes, count along the chain named.

B1: PI-HX-3031 (antibody)
heavy: QVQLKESGPGLVQPSQTLSLTCTVSGFSLTSYHVSWVRQPPGKGLEWMGAIWTGGSIAYNSLLKSRLSISRDTSKSQVFLKMNSLQTEDTATYYCARDLSDYYSSYTSFDYWGQGVMVTVSTAETTAPSVYPLAPGTALKSNSMVTLGCLVKGYFPEPVTVTWNSGALSSGVHTFPAVLQSGLYTLTSSVTVPSSTWSSQAVTCNVAHPASSTKVDKKIVPRECNPCGCTGSEVSSVFIFPPKTKDVLTITLTPKVTCVVVDISQNDPEVRFSWFIDDVEVHTAQTHAPEKQSNSTLRSVSELPIVHRDWLNGKTFKCKVNSGAFPAPIEKSISKPEGTPRGPQVYTMAPPKEEMTQSQVSITCMVKGFYPPDIYTEWKMNGQPQENYKNTPPTMDTDGSYFLYSKLNVKKETWQQGNTFTCSVLHEGLHNHHTEKSLSHSP
light: DIQMTQSPASLSTSLGETVSIECLASEGISNDLAWYQQKSGKSPQLLIYAASRLQDGVPSRFSGSGSGTRYSLKISGMQPEDEADYFCQQSYKYPLTFGSGTKLEIKRADAAPTVSIFPPSTEQLATGGASVVCLMNNFYPRDISVKWKIDGTERRDGVLDSVTDQDSKDSTYSMSSTLSLTKADYESHNLYTCEVVHKTSSSPVVKSFNRNEC
notes: Parental rat hybridoma, rat IgG2a
B2: PI-HX-3043 (antibody, rat IgG2a)
heavy: QVNLLQSRAALVKPGASVKLSCKASGYTFTDYYLHWVKQSHAKSLEWIGYINPNNAYTSYNEKFKSKATLTVDKSTNTAYMELSRLTSADSATYYCARDTTDYYNLHFAYWGQGTLVTVSSAETTAPSVYPLAPGTALKSNSMVTLGCLVKGYFPEPVTVTWNSGALSSGVHTFPAVLQSGLYTLTSSVTVPSSTWSSQAVTCNVAHPASSTKVDKKIVPRECNPCGCTGSEVSSVFIFPPKTKDVLTITLTPKVTCVVVDISQNDPEVRFSWFIDDVEVHTAQTHAPEKQSNSTLRSVSELPIVHRDWLNGKTFKCKVNSGAFPAPIEKSISKPEGTPRGPQVYTMAPPKEEMTQSQVSITCMVKGFYPPDIYTEWKMNGQPQENYKNTPPTMDTDGSYFLYSKLNVKKETWQQGNTFTCSVLHEGLHNHHTEKSLSHSP
light: B1 light with T13A, A25T, A50D, Q55E, P80T
notes: as for B1
B3: PI-HX-3021 (antibody, V domains shown)
VH: QVRLVQSGTALVRPGASVRMSCTASGYSFTDYWVSWVKQSHGQSLEWIGEIYPNSGTTNFNEKFEGKATLTVDKSTSTAYMELSRLTSEDSAIYYCTGEGTFDYWGQGVMVTVSS
VL: EIVLTQSPTTMAASPGEKVTITCRPSSSLSNMHWFQQKSGTSPKPWIYDTSKLASGVPDRFSGSGSGTSYSLTISSMEAEDAATYYCLQRSSYPPTFGAGTKLELK
notes: Rat IgG2a hybridoma antibody; Not the effector dead PI-3021; also called PI-3007 (name of the recombinant form)
B4: PI-HX-3016 (antibody, rat IgG1, V domains shown)
VH: EVQLVESGGGLVKPGASLKLSCVASGFTFSDDWMNWVRQTPGKAMEWIGDIKYDGSYTNYVPSLKNRLTISRDNAKNTLYLQMTNVRSEDTATYYCTSGGVFDYWGQGVMVTVSS
VL: B3 VL with T5S, P25A, L29V, N31Y, S92G, L105V
notes: Rat IgG1 hybridoma antibody

What was measured:
[1] = biological target: T1, N-terminally polyhistidine tagged human MARCO ECD (147-520), recombinant (human, UniProt Q9UEW3 147-520); assay: ELISA on recombinant human MARCO, 50 mM EDTA
T1 construct: also called PI-RG-3000; recombinant human MARCO; not shown: N-terminal polyhistidine tag
T1 sequence: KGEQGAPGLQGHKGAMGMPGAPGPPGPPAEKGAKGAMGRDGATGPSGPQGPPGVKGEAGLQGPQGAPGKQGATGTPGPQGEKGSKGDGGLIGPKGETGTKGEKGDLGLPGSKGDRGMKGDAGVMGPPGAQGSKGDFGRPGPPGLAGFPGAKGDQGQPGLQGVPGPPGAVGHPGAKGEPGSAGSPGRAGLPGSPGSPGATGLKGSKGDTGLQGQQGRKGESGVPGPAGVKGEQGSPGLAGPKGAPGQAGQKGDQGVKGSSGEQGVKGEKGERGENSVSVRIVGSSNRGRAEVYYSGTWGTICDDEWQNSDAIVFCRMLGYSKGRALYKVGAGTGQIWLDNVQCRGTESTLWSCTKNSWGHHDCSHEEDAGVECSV
Description: (§1) After the plates were incubated at room temperature for 1 hour or 4° C. overnight, the plates were wash 3 times with ELISA wash buffer (PBS/0.05% TWEEN-20), then hybridoma supernatant (1:5 dilution) or purified antibody (1 ug) was diluted in DPBS/Ca2+/2% FBS, DPBS without Ca2+/2 mM EDTA/2% FBS, DPBS without Ca2+/10 mM EDTA/2% FBS, and DPBS without Ca2+/50 mM EDTA/2% FBS. Plates again were incubated at room temperature for 1 hour.

[2] = biological target: T1, N-terminally polyhistidine tagged human …; assay: ELISA on recombinant human MARCO, 2 mM EDTA
Description: as §1

[3] = biological target: T2, Mouse MARCO, full length, on cells (mouse, UniProt Q60754 1-518); assay: flow cytometry, 293T cells expressing mouse MARCO
T2 construct: whole, on cells; the cell type is named under assay; also called muMARCO; MuMARCO
T2 sequence (looked up): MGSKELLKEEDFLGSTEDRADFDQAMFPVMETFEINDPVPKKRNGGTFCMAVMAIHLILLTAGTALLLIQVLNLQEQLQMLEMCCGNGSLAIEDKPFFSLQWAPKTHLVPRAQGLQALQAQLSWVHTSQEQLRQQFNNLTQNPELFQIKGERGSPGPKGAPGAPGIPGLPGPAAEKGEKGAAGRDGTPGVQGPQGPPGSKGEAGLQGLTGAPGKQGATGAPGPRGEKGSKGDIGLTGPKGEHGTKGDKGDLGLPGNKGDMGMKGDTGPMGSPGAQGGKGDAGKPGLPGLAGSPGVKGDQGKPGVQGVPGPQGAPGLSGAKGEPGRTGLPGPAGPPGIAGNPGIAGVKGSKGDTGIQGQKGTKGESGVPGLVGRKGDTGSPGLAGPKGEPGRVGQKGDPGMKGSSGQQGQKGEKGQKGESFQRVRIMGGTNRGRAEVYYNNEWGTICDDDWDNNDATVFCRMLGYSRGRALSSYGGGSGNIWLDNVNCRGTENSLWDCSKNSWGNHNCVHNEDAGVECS
Description: Supernatants were removed and cell pellets were resuspended in Ca²⁺+ and Mg²⁺+ Dulbecco's phosphate-buffered saline (D-PBS) at 1×10⁶ cells/ml. 100,000 cells/well were plated onto U-bottom 96-well plates for staining and all centrifugation steps were performed at 1500 rpm at 4° C. for 5 min and samples were kept protected from light throughout the protocol. Cells were pelleted and resuspended in 100 μl of Zombie NIR viability dye (BioLegend) prepared by diluting Zombie NIR dimethyl sulfoxide (DMSO) stock 1000-fold in D-PBS. […] Flow cytometry data were analyzed using FlowJo software (version 10.6.1) and data were processed and further analyzed in Microsoft Excel and GraphPad Prism software (version 8). Half-maximal effective concentrations (EC₅₀) were calculated based on geometric mean fluorescence intensities (gMFI). In case when the plates were not able to be analyzed on the cytometer, cells were pelleted after the washes and fixed in 100 μl of 2% paraformaldehyde (PFA), prepared by diluting the 16% (w/v) stock (Thermo Fisher) in DPBS, for 15 min at RT. […]

[4] = biological target: T3, N-terminal his-tagged mouse MARCO protein, recombinant (mouse, UniProt Q60754 150-518); assay: Biacore; antigen construct not stated
T3 construct: The entry holds the His tag, the CLD and the SRCR domain; also called mMARCO (RG3016); PI-RG-3016
T3 sequence: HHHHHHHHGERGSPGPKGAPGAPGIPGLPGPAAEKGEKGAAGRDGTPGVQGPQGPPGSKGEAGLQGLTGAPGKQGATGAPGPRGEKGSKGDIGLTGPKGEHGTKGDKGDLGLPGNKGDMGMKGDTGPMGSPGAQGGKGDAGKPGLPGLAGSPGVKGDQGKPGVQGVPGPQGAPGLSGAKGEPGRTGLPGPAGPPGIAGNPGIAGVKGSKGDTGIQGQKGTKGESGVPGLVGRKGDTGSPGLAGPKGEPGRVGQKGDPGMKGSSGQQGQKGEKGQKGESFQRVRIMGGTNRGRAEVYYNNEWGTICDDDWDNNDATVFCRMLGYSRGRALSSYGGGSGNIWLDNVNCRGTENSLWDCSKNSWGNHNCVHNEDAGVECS

Binder | ELISA signal (A450) [1] | ELISA signal (A450) [2] | EC50 [3] [nM] | koff [4] [s⁻¹] | kon [4] [M⁻¹ s⁻¹]
B1 | 0.0754 | 0.0678 | – | – | –
B2 | 0.1 | 0.0595 | – | – | –
B3 | – | – | 0.47 to 0.75 | 2.11e-05 | 191000
B4 | – | – | 0.36 to 0.59 | 1.27e-06 | 184000
